# T1: LyxD (H16_B0217), L-lyxonate dehydratase (Cupriavidus necator, UniProt Q0K4Q6)
# T1 sequence (Q0K4Q6 1-391): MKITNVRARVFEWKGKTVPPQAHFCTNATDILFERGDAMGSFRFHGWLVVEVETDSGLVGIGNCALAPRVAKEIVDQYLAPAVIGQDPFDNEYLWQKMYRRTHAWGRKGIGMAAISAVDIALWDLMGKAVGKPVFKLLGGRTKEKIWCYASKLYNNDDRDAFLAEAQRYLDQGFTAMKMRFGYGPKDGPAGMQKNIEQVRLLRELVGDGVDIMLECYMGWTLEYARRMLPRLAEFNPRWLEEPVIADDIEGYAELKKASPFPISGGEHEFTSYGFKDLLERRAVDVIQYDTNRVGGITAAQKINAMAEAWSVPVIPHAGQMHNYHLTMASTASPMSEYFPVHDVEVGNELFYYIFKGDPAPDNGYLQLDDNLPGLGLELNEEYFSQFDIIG
# T2: ClxD (H16_B0216), Clx decarboxylase (Cupriavidus necator, UniProt Q0K4Q7)
# T2 sequence (Q0K4Q7 1-338): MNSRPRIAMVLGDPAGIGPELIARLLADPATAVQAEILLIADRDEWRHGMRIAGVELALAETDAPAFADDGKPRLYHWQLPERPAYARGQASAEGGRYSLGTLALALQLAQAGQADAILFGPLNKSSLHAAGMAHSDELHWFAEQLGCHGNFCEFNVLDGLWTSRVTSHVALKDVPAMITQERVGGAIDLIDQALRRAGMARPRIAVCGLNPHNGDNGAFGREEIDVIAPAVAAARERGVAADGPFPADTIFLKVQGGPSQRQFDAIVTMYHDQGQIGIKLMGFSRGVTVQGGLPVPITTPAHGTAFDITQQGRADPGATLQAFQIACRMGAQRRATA
# T3: KgsD (H16_B0212), Kgs dehydrogenase (Cupriavidus necator, UniProt Q0K4R1)
# T3 sequence (Q0K4R1 1-527): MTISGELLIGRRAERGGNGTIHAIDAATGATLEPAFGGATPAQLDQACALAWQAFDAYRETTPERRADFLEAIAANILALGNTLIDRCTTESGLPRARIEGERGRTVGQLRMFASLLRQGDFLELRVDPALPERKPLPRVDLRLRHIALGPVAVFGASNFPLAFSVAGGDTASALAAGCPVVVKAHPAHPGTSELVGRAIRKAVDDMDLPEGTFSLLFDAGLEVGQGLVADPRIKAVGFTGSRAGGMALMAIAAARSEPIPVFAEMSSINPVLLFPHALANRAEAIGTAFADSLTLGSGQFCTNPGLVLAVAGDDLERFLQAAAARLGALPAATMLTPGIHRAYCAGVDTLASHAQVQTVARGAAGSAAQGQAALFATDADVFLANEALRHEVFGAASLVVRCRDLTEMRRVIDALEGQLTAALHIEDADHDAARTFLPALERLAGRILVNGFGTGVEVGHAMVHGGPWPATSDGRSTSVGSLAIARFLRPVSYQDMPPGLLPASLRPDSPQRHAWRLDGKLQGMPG
# T4: KdlD, Kdl dehydratase (Cupriavidus necator, UniProt Q0K4R0)
# T4 sequence (Q0K4R0 1-310): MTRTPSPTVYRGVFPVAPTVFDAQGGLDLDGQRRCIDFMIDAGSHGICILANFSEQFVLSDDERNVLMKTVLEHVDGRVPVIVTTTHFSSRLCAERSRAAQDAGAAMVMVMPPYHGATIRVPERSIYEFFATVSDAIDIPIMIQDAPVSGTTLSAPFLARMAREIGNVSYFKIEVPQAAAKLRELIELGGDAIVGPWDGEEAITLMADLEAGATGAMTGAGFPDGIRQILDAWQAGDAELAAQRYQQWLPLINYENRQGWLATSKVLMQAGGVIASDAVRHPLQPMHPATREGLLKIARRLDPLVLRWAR
# B1: DhaL (H16_A3012), DHA lactonase (Cupriavidus necator H16) (protein)
# chain: MDTVRIFDERARELPLAGERLEQLACRATWSEGPVWLPDEDAVLWSDIPNDRILRWSAADGMSVWRTGAGFTNGHALEADGSLLHCSHGKRAIVRTHRSGARLGEDELVVSHYQGRRLNSPNDIVVKRDGTLWFTDPPYGILSDREGHRADPELRHNYVFRYDPAVGALEVASDLIEEPNGLAFSPDEDVLYVSDTSAALRDDGHHHIVAFDVVAGRVLANPRVFAVIAPGLPDGFRVDRRGWLFTSSASGVQVFHPDGTRLAHIPVPEKVGNLVFGGAEGDALFIAASTSLYRLRLGQRLT
# B2: ClxD (H16_B0216), Clx decarboxylase (Cupriavidus necator H16) (protein)
# chain: T2 sequence (Q0K4Q7 1-338)
# B3: DkgM (H16_B1217), DKG mutase (Cupriavidus necator H16) (protein)
# chain: MESQWTAVLVEKFGHSFSAYELDGGERRFSVQLPDYPHEFVVDRERLCGYVGHYGVQTFAHAGDGGAAVIAVDLMRGAVRARLDCSPYHRIHGLQIDRQGRVYALSERDNMLVVFEAPLEHPVPDRAVPAGGVKSHLFVLSADGERAYVTNLLSHTVTLVHPYDATRAPRAAYAGRRPEGCCLSRDEAALYVASRDDHSLTRLDARTMEAVRTVPTGEDPTRIYWSPDDRLFVLNYGERSIRVFDPDTLAETGRVDTGARPIALAFHPADPSRAYIALNDHTVGQLDLPGLALRHAFTTGKEPDGLAILALPTR
# Columns and labels:
# [1] = biological target: T1, LyxD (H16_B0217), L-lyxonate dehydratase; test: in vitro activity assay; assay type: biochemical
# [2] = biological target: T2, ClxD (H16_B0216), Clx decarboxylase; test: in vitro decarboxylation assay; assay type: biochemical; conditions: with 2-carboxy-L-lyxonate; catalytic NAD+, regenerated in the reaction
# [3] = biological target: T3, KgsD (H16_B0212), Kgs dehydrogenase; test: in vitro activity assay; assay type: biochemical
# KdlD, Kdl dehydratase = biological target: T4, KdlD, Kdl dehydratase; test: in vitro activity assay; assay type: biochemical
# in vitro enzyme kinetics [4] = substrate: O=C1O[C@H]([C@@H](O)CO)C(=O)C1=O; test: in vitro enzyme kinetics; assay type: biochemical, Cupriavidus necator
# in vitro enzyme kinetics [5] = substrate: O=C(O)C(O)(C(=O)O)[C@H](O)[C@@H](O)CO; test: in vitro enzyme kinetics; assay type: biochemical, Cupriavidus necator; conditions: NAD+ as catalytic cofactor
# in vitro enzyme kinetics [6] = substrate: O=C(O)C(=O)C(=O)[C@H](O)[C@@H](O)CO; test: in vitro enzyme kinetics; assay type: biochemical, Cupriavidus necator
molecule,measurement,setting,value
O=C(O)[C@H](O)[C@H](O)[C@@H](O)CO [L-lyxonate],in vitro activity assay (dehydration),[1],heterologously expressed and display the predicted in vitro activities
NC(=O)c1ccc[n+]([C@@H]2O[C@H](COP(=O)(O)OP(=O)(O)OC[C@H]3O[C@@H](n4cnc5c(N)ncnc54)[C@H](O)[C@@H]3O)[C@@H](O)[C@H]2O)c1 [NAD^+],in vitro decarboxylation assay; stopped-flow absorbance at 340 nm,[2],"generates L-lyxonate (Figure 1C), even with sub-stoichiometric amounts of NAD^+"
O=CCCC(=O)C(=O)O [α-ketoglutarate semialdehyde],in vitro activity assay (oxidation),[3],heterologously expressed and display the predicted in vitro activities
O=C(O)C(=O)C[C@@H](O)CO [2-keto-3-deoxy-L-lyxonate],in vitro activity assay (dehydration),"KdlD, Kdl dehydratase",heterologously expressed and display the predicted in vitro activities
B1,Km,in vitro enzyme kinetics [4],490 ± 70 µM
same,kcat,in vitro enzyme kinetics [4],8.0 ± 0.6 s−^1
B2,Km,in vitro enzyme kinetics [5],800 ± 400 µM
same,kcat,in vitro enzyme kinetics [5],0.33 ± 0.08 s−^1
B3,Km,in vitro enzyme kinetics [6],81 ± 7 µM
same,kcat,in vitro enzyme kinetics [6],0.6 ± 0.1 s−^1

# — article PMC7059403 (Journal of the American Chemical Society, 2020)
